Experimental data taken from patent US20250339531A1, “DUX4 POLYPEPTIDES AND NUCLEIC ACIDS FOR TREATING INFLAMMATORY AND AUTOIMMUNE CONDITIONS” (Fred Hutchinson Cancer Center, priority 2021, published 2025).

B1: TUBB (protein)
chain: MREIVHIQAGQCGNQIGAKFWEVISDEHGIDPTGTYHGDSDLQLDRISVYYNEATGGKYVPRAILVDLEPGTMDSVRSGPFGQIFRPDNFVFGQSGAGNNWAKGHYTEGAELVDSVLDVVRKEAESCDCLQGFQLTHSLGGGTGSGMGTLLISKIREEYPDRIMNTFSVVPSPKVSDTVVEPYNATLSVHQLVENTDETYCIDNEALYDICFRTLKLTTPTYGDLNHLVSATMSGVTTCLRFPGQLNADLRKLAVNMVPFPRLHFFMPGFAPLTSRGSQQYRALTVPELTQQVFDAKNMMAACDPRHGRYLTVAAVFRGRMSMKEVDEQMLNVQNKNSSYFVEWIPNNVKTAVCDIPPRGLKMAVTFIGNSTAIQELFKRISEQFTAMFRRKAFLHWYTGEGMDEMEFTEAESNMNDLVSEYQQYQDATAEEEEDFGEEAEEEA
B2: ACTN1 (protein)
chain: MDHYDSQQTNDYMQPEEDWDRDLLLDPAWEKQQRKTFTAWCNSHLRKAGTQIENIEEDFRDGLKLMLLLEVISGERLAKPERGKMRVHKISNVNKALDFIASKGVKLVSIGAEEIVDGNVKMTLGMIWTIILRFAIQDISVEETSAKEGLLLWCQRKTAPYKNVNIQNFHISWKDGLGFCALIHRHRPELIDYGKLRKDDPLTNLNTAFDVAEKYLDIPKMLDAEDIVGTARPDEKAIMTYVSSFYHAFSGAQKAETAANRICKVLAVNQENEQLMEDYEKLASDLLEWIRRTIPWLENRVPENTMHAMQQKLEDFRDYRRLHKPPKVQEKCQLEINFNTLQTKLRLSNRPAFMPSEGRMVSDINNAWGCLEQVEKGYEEWLLNEIRRLERLDHLAEKFRQKASIHEAWTDGKEAMLRQKDYETATLSEIKALLKKHEAFESDLAAHQDRVEQIAAIAQELNELDYYDSPSVNARCQKICDQWDNLGALTQKRREALERTEKLLETIDQLYLEYAKRAAPFNNWMEGAMEDLQDTFIVHTIEEIQGLTTAHEQFKATLPDADKERLAILGIHNEVSKIVQTYHVNMAGTNPYTTITPQEINGKWDHVRQLVPRRDQALTEEHARQQHNERLRKQFGAQANVIGPWIQTKMEEIGRISIEMHGTLEDQLSHLRQYEKSIVNYKPKIDQLEGDHQLIQEALIFDNKHTNYTMEHIRVGWEQLLTTIARTINEVENQILTRDAKGISQEQMNEFRASFNHFDRDHSGTLGPEEFKACLISLGYDIGNDPQGEAEFARIMSIVDPNRLGVVTFQAFIDFMSRETADTDTADQVMASFKILAGDKNYITMDELRRELPPDQAEYCIARMAPYTGPDSVPGALDYMSFSTALYGESDL
B3: LMNA (protein)
chain: METPSQRRATRSGAQASSTPLSPTRITRLQEKEDLQELNDRLAVYIDRVRSLETENAGLRLRITESEEVVSREVSGIKAAYEAELGDARKTLDSVAKERARLQLELSKVREEFKELKARNTKKEGDLIAAQARLKDLEALLNSKEAALSTALSEKRTLEGELHDLRGQVAKLEAALGEAKKQLQDEMLRRVDAENRLQTMKEELDFQKNIYSEELRETKRRHETRLVEIDNGKQREFESRLADALQELRAQHEDQVEQYKKELEKTYSAKLDNARQSAERNSNLVGAAHEELQQSRIRIDSLSAQLSQLQKQLAAKEAKLRDLEDSLARERDTSRRLLAEKEREMAEMRARMQQQLDEYQELLDIKLALDMEIHAYRKLLEGEEERLRLSPSPTSQRSRGRASSHSSQTQGGGSVTKKRKLESTESRSSFSQHARTSGRVAVEEVDEEGKFVRLRNKSNEDQSMGNWQIKRQNGDDPLLTYRFPPKFTLKAGQVVTIWAAGAGATHSPPTDLVWKAQNTWGCGNSLRTALINSTGEEVAMRKLVRSVTVVEDDEDEDGDDLLHHHHGSHCSSSGDPAEYNLRSRTVLCGTCGQPADKASASGSGAQVGGPISSGSSASSVTVTRSYRSVGGSGGGSFGDNLVTRSY
B4: CFL1 (protein)
chain: MVSPGHGHLRERKELTPHSTNPAAARIWDATYSDGYVRPASGVAVSDGVIKVFNDMKVRKSSTPEEVKKRKKAVLFCLSEDKKNIILEEGKEILVGDVGQTVDDPYATFVKMLPDKDCRYALYDATYETKESKKEDLVFIFWAPESAPLKSKMIYASSKDAIKKKLTGIKHELQANCYEEVKDRCTLAEKLGGSAVISLEGKPL
B5: CAVIN1 (protein)
chain: MEDPTLYIVERPLPGYPDAEAPEPSSAGAQAAEEPSGAGSEELIKSDQVNGVLVLSLLDKIIGAVDQIQLTQAQLEERQAEMEGAVQSIQGELSKLGKAHATTSNTVSKLLEKVRKVSVNVKTVRGSLERQAGQIKKLEVNEAELLRRRNFKVMIYQDEVKLPAKLSISKSLKESEALPEKEGEELGEGERPEEDAAALELSSDEAVEVEEVIEESRAERIKRSGLRRVDDFKKAFSKEKMEKTKVRTRENLEKTRLKTKENLEKTRHTLEKRMNKLGTRLVPAERREKLKTSRDKLRKSFTPDHVVYARSKTAVYKVPPFTFHVKKIREGQVEVLKATEMVEVGADDDEGGAERGEAGDLRRGSSPDVHALLEITEESDAVLVDKSDSD
B6: DBN1 (protein)
chain: AGVSFSGHRLELLAAYEEVIREESAADWALYTYEDGSDDLKLAASGEGGLQELSGHFENQKVMYGFCSVKDSQAALPKYVLINWVGEDVPDARKCACASHVAKVAEFFQGVDVIVNASSVEDIDAGAIGQRLSNGLARLSSPVLHRLRLREDENAEPVGTTYQKTDAAVEMKRINREQFWEQAKKEEELRKEEERKKALDERLRFEQERMEQERQEQEERERRYREREQQIEEHRRKQQTLEAEEAKRRLKEQSIFGDHRDEEEETHMKKSESEVEEAAAIIAQRPDNPREFFKQQERVASASAGSCDVPSPFNHRPGSHLDSHRRMAPTPIPTRSPSDSSTASTPVAEQIERALDEVTSSQPPPLPPPPPPAQETQEPSPILDSEETRAAAPQAWAGPMEEPPQAQAPPRGPGSPAEDLMFMESAEQAVLAAPVEPATADATEIHDAADTIETDTATADTTVANNVPPAATSLIDLWPGNGEGASTLQGEPRAPTPPSGTEVTLAEVPLLDEVAPEPLLPAGEGCATLLNFDELPEPPATFCDPEEVEGESLAAPQTPTLPSALEELEQEQEPEPHLLTNGETTQKEGTQASEGYFSQSQEEEFAQSEELCAKAPPPVFYNKPPEIDITCWDADPVPEEEEGFEGGD
B7: TUBB6 (protein)
chain: MREIVHIQAGQCGNQIGTKFWEVISDEHGIDPAGGYVGDSALQLERINVYYNESSSQKYVPRAALVDLEPGTMDSVRSGPFGQLFRPDNFIFGQTGAGNNWAKGHYTEGAELVDAVLDVVRKECEHCDCLQGFQLTHSLGGGTGSGMGTLLISKIREEFPDRIMNTFSVMPSPKVSDTVVEPYNATLSVHQLVENTDETYCIDNEALYDICFRTLKLTTPTYGDLNHLVSATMSGVTTSLRFPGQLNADLRKLAVNMVPFPRLHFFMPGFAPLTSRGSQQYRALTVPELTQQMFDARNMMAACDPRHGRYLTVATVFRGPMSMKEVDEQMLAIQSKNSSYFVEWIPNNVKVAVCDIPPRGLKMASTFIGNSTAIQELFKRISEQFSAMFRRKAFLHWFTGEGMDEMEFTEAESNMNDLVSEYQQYQDATANDGEEAFEDEEEEIDG
B8: WDR1 (protein)
chain: MPYEIKKVFASLPQVERGVSKIIGGDPKGNNFLYTNGKCVILRNIDNPALADIYTEHAHQVVVAKYAPSGFYIASGDVSGKLRIWDTTQKEHLLKYEYQPFAGKIKDIAWTEDSKRIAVVGEGREKFGAVFLWDSGSSVGEITGHNKVINSVDIKQSRPYRLATGSDDNCAAFFEGPPFKFKFTIGDHSRFVNCVRFSPDGNRFATASADGQIYIYDGKTGEKVCALGGSKAHDGGIYAISWSPDSTHLLSASGDKTSKIWDVSVNSVVSTFPMGSTVLDQQLGCLWQKDHLLSVSLSGYINYLDRNNPSKPLHVIKGHSKSIQCLTVHKNGGKSYIYSGSHDGHINYWDSETGENDSFAGKGHTNQVSRMTVDESGQLISCSMDDTVRYTSLMLRDYSGQGVVKLDVQPKCVAVGPGGYAVVVCIGQIVLLKDQRKCFSIDNPGYEPEVVAVHPGGDTVAIGGVDGNVRLYSILGTTLKDEGKLLEAKGPVTDVAYSHDGAFLAVCDASKVVTVFSVADGYSENNVFYGHHAKIVCLAWSPDNEHFASGGMDMMVYVWTLSDPETRVKIQDAHRLHHVSSLAWLDEHTLVTTSHDASVKEWTITY

tested on: proteins that co-immunoprecipitated with DUX4-CTD constructs expressed in MB135 myoblasts; assay: LC-MS of proteins co-immunoprecipitated with DUX4-CTD (Table 1) and western validation; type: binding, human; parameters: key to 4. mL1dL2 + Dox + IFNG / 4. + IFNG mix / 4. longCTD + Dox + IFNG / 3. + IFNg + Dox longCTD / 3. + Dox longCTD / 3. + IFNG longCTD: peptide-spectrum matches (PSMs) per protein; settings: LC-MS value per protein co-immunoprecipitated from MB135 myoblasts; + IFNG mix sample (no Dox); kind of count not given
From the text: As an unbiased method to identify proteins that interact with the C-terminal region of DUX4, liquid chromatography mass spectroscopy (LC-MS) was used to identify proteins that co-immunoprecipitated with DUX4-CTD constructs expressed in MB135 myoblasts. In the first experiment, MB135iDUX4-CTD cells were used, either untreated, treated with doxycycline alone, or with both doxycycline and IFNG. In the second experiment, MB135iDUX4-CTD and MB135iDUX4mL1dL2 cells were used, both treated with doxycycline and IFNG, compared to these two cell lines untreated and combined as a control. Proteins with a minimum of 2 peptide spectrum matches (PSMs) in at least one sample that were identified in both experiments were assigned to one of ten categories (see Methods) to separate candidate interactors from other categories that might be co-purified because of obligate interactions (e.g., proteasome or ribosome) or might be less likely to be physiologically relevant (e.g., cytoskeletal proteins). Candidate interactors were then ranked based on the total PSMs for that protein across all samples.
Centrifugation at 2500 rcf at 4° C. for 5 min pelleted the nuclei, supernatant was discarded, and nuclei resuspended in 1 mL IP buffer pH 7.4 (25 mM Tris-HCl pH 7.5, 175 mM NaCl, 1 mM EDTA, 0.2% NP-40, 5% glycerol) and incubated for 1 hour at 4° C. with rotation then spun at 21000 rcf for 10 minutes at 4° C. to pellet insoluble debris. Protein concentration was determined using the Pierce BCA Protein Assay Kit (ThermoFisher, 23225). An equivalent amount of protein per sample was pre-cleared with Dynabeads Protein G (Invitrogen) bound to mouse IgG (Abcam #131368) for 1 hour at 4° C. with rotation. FLAG-tagged constructs were then immunoprecipitated with Dynabeads Protein G beads coupled to mouse anti-FLAG M2 mAb (Sigma F3165) for 3 hours at 4° C. with rotation. Beads were washed 3× with 1 mL IP buffer and eluted by adding 2× NuPage LDS Sample Buffer (Thermo Fisher, diluted from 4× with PBS) to the beads and heating for 10 minutes at 70° C.
For LC-MS, anti-FLAG immunoprecipitation was performed with beads cross-linked to the anti-FLAG antibody and the proteins competitively eluted with FLAG peptide. Eluted protein samples were electrophoresed into a NuPage 4-12% Bis-Tris gel, excised, and processed by the Fred Hutchinson Cancer Research Center Proteomics Core. Samples were reduced, alkylated, digested with trypsin, desalted, and run on the Orbitrap Eclipse Tribid Mass Spectrometer (Thermo Fisher). Proteomics data were analyzed using Proteome Discoverer 2.4 against a Uniprot human database that included common contaminants using Sequest HT and Percolator for scoring. […] Proteins that were identified in at least one sample from both independent experiments with at least 2 PSMs in one sample were assigned to one of ten categories: 1, candidates; 2, cytoskeletal associated; 3, cytoskeletal; 4, ribosome/translation associated; 5, proteasome associated; 6, membrane or extracellular; ER, golgi, or vesicle associated; 8, lipid metabolism; 9, chaperones; 10, nuclear import or nuclear membrane associated. The proteins in category 1 were further investigated for interactions with DUX4.

Question: For B1, which “4. + IFNG mix” value is on record?
Answer: Its value is 19.

Question: B2 was tested. Which “4. + IFNG mix” value did it give?
Answer: The value was 9.

Question: B3 was tested. Which “4. + IFNG mix” value did it give?
Answer: Its value is 4.

Question: For B4, which “4. + IFNG mix” value is on record?
Answer: Its value is 1.

Question: For B5, which “4. + IFNG mix” value is on record?
Answer: The value was 7.

same assay, conditions: LC-MS value per protein co-immunoprecipitated with DUX4-CTD construct mL1dL2 in MB135 myoblasts; + Dox + IFNG; kind of count not given

Question: How did the “4. mL1dL2 + Dox + IFNG” value turn out when B6 was run?
Answer: Its value is 2.

Question: How did the “4. mL1dL2 + Dox + IFNG” value turn out when B1 was run?
Answer: The value was 56.

Question: Which “4. mL1dL2 + Dox + IFNG” value does the source give for B2 here?
Answer: The value was 22.

Question: For B3, which “4. mL1dL2 + Dox + IFNG” value is on record?
Answer: The value was 8.

Question: With B4 as the molecule, how does the “4. mL1dL2 + Dox + IFNG” value read?
Answer: The value was 4.

Question: With B5 as the molecule, how does the “4. mL1dL2 + Dox + IFNG” value read?
Answer: Its value is 16.

Question: With B7 as the molecule, how does the “4. mL1dL2 + Dox + IFNG” value read?
Answer: The value was 23.

Question: How did the “4. mL1dL2 + Dox + IFNG” value turn out when B8 was run?
Answer: Its value is 2.
